Source: IntAct's records for PubMed 28065597

Legend:
grb2_human GRB2 = grb2_human GRB2 (UniProt P62993)
igf1r_human IGF1R [1] = biological target: igf1r_human IGF1R (UniProt P08069)
erbb4_human ERBB4 = erbb4_human ERBB4 (UniProt Q15303)
fgfr2_human FGFR2 = fgfr2_human FGFR2 (UniProt P21802)
fgfr4_human FGFR4 = fgfr4_human FGFR4 (UniProt P22455)
vgfr2_human KDR = vgfr2_human KDR (UniProt P35968)
igf1r_human IGF1R [2] = biological target: igf1r_human IGF1R (UniProt P08069); remark: listed apart in the source

Sequence of Tyrosine-protein phosphatase non-receptor type 6 (Homo sapiens), P29350 D419A;C453S (P29350 whole entry D419A/C453S): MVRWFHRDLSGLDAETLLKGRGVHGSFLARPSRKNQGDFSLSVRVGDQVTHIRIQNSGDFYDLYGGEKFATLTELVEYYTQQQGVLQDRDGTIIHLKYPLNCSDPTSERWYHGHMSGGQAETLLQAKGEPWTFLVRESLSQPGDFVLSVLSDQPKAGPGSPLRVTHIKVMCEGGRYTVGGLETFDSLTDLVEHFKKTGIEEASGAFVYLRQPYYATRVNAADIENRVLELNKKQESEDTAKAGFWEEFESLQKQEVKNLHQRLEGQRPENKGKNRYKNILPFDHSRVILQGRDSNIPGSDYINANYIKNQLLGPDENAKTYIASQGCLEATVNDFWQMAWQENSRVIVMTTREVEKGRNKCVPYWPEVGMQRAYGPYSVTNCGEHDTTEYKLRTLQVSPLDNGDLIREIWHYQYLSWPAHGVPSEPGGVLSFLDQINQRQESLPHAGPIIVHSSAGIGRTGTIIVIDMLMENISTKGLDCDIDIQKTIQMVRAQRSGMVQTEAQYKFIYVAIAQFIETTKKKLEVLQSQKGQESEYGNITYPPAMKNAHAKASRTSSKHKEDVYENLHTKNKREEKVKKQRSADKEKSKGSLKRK
Sequence of Tyrosine-protein phosphatase non-receptor type 6 (Homo sapiens), P29350 C453S (P29350 whole entry C453S): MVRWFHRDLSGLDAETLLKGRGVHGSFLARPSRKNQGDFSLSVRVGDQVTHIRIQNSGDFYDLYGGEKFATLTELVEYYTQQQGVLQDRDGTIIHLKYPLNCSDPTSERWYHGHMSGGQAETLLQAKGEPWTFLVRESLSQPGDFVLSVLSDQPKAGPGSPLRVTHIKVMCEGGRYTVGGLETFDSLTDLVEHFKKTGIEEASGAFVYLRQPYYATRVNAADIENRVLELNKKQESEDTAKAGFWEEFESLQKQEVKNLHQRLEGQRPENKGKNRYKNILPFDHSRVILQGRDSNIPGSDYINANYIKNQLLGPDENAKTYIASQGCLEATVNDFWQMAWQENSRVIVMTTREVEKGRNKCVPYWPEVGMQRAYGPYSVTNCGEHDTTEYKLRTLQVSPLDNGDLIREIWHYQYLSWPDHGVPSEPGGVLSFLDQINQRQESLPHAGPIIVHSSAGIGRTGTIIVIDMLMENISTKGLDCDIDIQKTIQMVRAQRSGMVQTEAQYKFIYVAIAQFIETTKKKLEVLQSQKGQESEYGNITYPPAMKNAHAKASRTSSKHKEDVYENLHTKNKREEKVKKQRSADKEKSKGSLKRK
Sequence of igf1r_human IGF1R (P08069 whole entry, looked up): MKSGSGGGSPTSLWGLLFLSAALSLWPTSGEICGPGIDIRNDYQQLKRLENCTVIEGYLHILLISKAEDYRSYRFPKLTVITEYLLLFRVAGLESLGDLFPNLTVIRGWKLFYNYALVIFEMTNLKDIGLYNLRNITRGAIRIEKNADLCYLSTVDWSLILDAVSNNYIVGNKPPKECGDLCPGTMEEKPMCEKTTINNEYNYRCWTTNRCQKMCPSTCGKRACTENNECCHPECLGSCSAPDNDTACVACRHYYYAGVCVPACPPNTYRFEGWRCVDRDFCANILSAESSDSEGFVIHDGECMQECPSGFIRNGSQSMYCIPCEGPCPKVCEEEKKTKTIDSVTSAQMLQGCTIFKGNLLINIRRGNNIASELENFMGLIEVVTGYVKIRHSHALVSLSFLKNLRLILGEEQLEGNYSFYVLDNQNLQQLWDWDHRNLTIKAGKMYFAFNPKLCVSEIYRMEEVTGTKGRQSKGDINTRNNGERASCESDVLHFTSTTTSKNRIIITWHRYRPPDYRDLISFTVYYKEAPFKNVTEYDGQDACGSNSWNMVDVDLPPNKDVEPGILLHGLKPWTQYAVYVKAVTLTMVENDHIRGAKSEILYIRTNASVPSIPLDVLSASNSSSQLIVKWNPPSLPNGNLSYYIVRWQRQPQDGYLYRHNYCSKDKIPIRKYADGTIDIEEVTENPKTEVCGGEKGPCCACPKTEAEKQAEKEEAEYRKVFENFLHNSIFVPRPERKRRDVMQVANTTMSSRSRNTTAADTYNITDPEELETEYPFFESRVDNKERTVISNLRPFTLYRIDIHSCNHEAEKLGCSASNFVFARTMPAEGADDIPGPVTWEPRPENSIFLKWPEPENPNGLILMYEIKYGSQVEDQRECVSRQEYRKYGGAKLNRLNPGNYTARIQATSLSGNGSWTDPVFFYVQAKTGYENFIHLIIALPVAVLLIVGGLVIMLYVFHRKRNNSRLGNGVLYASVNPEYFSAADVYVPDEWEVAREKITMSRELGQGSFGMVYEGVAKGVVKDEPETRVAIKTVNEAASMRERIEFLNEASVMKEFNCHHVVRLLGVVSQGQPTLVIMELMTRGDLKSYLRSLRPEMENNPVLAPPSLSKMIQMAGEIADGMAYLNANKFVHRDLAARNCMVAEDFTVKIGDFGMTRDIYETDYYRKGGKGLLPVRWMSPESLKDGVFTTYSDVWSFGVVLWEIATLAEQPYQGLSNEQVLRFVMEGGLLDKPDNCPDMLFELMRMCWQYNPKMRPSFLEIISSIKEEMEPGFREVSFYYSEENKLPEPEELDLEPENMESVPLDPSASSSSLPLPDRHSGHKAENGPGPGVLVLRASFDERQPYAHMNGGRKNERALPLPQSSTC
Sequence of fgfr2_human FGFR2 (P21802 whole entry, looked up): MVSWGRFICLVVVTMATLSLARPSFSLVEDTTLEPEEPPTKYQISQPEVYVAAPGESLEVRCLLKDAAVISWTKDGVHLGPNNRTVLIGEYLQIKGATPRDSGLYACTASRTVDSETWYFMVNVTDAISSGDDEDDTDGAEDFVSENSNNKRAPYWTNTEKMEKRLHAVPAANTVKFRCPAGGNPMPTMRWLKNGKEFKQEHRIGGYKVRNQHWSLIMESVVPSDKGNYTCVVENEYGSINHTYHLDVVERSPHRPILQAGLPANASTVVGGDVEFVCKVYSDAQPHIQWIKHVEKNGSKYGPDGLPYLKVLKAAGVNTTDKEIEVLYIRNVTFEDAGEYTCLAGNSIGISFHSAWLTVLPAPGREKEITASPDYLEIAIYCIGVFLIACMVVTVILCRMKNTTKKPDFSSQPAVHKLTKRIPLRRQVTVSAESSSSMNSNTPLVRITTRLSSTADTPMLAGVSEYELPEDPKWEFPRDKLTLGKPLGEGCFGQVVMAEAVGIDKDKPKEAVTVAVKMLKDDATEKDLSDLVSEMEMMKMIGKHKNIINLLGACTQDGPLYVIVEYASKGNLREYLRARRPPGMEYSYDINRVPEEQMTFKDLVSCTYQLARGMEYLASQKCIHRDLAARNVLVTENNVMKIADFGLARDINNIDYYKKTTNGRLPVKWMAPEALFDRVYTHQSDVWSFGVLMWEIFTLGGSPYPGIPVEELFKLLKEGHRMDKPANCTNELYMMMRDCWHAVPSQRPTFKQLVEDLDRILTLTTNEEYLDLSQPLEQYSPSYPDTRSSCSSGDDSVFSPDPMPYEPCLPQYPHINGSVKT
Sequence of erbb4_human ERBB4 (Q15303 whole entry): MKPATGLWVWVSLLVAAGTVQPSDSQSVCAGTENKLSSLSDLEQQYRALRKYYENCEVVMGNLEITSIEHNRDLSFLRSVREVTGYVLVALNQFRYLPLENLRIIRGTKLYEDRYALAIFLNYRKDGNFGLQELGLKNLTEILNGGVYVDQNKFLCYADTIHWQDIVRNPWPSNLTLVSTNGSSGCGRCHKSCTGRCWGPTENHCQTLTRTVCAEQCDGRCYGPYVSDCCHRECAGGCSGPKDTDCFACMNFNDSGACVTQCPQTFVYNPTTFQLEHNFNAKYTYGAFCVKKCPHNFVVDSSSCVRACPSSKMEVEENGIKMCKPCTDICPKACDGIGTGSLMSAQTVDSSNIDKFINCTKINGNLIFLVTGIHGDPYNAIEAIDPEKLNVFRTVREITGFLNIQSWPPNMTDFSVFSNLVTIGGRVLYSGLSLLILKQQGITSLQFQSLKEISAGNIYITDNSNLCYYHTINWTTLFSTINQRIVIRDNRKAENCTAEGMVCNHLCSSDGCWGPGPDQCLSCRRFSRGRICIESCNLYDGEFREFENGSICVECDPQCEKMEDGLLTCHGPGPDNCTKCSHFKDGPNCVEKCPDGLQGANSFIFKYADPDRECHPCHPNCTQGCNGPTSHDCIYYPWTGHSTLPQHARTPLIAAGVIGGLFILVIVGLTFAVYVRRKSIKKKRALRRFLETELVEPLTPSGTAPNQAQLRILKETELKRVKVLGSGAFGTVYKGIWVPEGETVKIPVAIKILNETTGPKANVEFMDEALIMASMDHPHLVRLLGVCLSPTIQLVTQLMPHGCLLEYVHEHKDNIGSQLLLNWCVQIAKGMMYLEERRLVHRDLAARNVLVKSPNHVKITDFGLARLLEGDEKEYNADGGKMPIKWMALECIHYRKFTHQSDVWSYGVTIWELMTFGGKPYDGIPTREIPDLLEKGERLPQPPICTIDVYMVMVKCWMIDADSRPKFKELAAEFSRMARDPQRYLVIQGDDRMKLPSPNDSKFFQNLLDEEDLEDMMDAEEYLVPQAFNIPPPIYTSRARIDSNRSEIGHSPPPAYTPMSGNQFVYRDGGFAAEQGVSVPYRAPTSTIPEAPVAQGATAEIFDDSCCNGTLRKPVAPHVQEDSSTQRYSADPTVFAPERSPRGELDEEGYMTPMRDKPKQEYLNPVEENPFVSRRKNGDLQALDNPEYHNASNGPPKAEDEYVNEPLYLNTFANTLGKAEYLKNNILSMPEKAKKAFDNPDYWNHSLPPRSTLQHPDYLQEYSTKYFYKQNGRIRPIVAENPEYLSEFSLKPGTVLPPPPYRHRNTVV
Sequence of grb2_human GRB2 (P62993 whole entry, looked up): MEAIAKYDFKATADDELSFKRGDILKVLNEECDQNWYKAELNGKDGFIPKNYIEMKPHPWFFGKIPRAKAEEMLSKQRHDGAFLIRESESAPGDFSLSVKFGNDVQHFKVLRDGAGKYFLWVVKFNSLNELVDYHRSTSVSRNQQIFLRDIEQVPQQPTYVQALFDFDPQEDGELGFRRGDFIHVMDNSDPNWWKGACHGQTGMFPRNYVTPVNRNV

In the case of “Receptor-type tyrosine-protein phosphatase alpha (Homo sapiens) (from UniProt P18433) Y798F”, the “effect of a mutation on the interaction” value (grb2_human GRB2) is reported as “decreasing interaction”.

With “Tyrosine-protein phosphatase non-receptor type 6 (Homo sapiens), P29350 C453S” the “effect of a mutation on the interaction” value (igf1r_human IGF1R [1]) was “decreasing interaction”, the “effect of a mutation on the interaction” value (erbb4_human ERBB4) was “with no effect” and the “effect of a mutation on the interaction” value (fgfr2_human FGFR2) was “with no effect”. For the same substance, the “effect of a mutation on the interaction” value (fgfr4_human FGFR4) was “with no effect” and the “effect of a mutation on the interaction” value (vgfr2_human KDR) was “with no effect”.

With “Tyrosine-protein phosphatase non-receptor type 6 (Homo sapiens), P29350 D419A;C453S” the “effect of a mutation on the interaction” value (igf1r_human IGF1R [1]) was “decreasing interaction”, the “effect of a mutation on the interaction” value (erbb4_human ERBB4) was “with no effect” and the “effect of a mutation on the interaction” value (fgfr2_human FGFR2) was “with no effect”. The “effect of a mutation on the interaction” value (fgfr4_human FGFR4) was “with no effect”, the “effect of a mutation on the interaction” value (vgfr2_human KDR) was “with no effect” and the “effect of a mutation on the interaction” value (igf1r_human IGF1R [2]) was “with no effect”.
